Reference: US20170189511A1

Molecular target: HLA-A*24 (peptide-receptive MHC class I monomer of the UV-ligand exchange assay) (human)
Assay: UV-ligand exchange with anti-b2m ELISA

B1: Peptide SEQ ID NO: 217 (…) (peptide)
peptide: FFPPTRQMGLLF
- peptide exchange yield: > 75%

B2: Peptide SEQ ID NO: 181 (…) (peptide)
peptide: LYLDIINLF
- peptide exchange yield: > 75%

B3: Peptide SEQ ID NO: 193 (…) (peptide)
peptide: RFHPTPLLL
- peptide exchange yield: > 75%

B4: Peptide SEQ ID NO: 187 (…) (peptide)
peptide: TYLRDQHFL
- peptide exchange yield: > 75%

B5: Peptide SEQ ID NO: 211 (…) (peptide)
peptide: YYLEVGKTLI
- peptide exchange yield: > 75%

B6: Peptide SEQ ID NO: 172 (…) (peptide)
peptide: TYTTVPRVAF
- peptide exchange yield: > 75%

B7: Peptide SEQ ID NO: 203 (…) (peptide)
peptide: FYSRLLQKF
- peptide exchange yield: 50 to 75%

B8: Peptide SEQ ID NO: 188 (RYFKGLVF) (peptide)
peptide: RYFKGLVF
- peptide exchange yield: 50 to 75%

B9: Peptide SEQ ID NO: 191 (…) (peptide)
peptide: VFKASKITF
- peptide exchange yield: 50 to 75%

B10: Peptide SEQ ID NO: 208 (…) (peptide)
peptide: TYTQDFNKF
- peptide exchange yield: 50 to 75%

B11: Peptide SEQ ID NO: 189 (…) (peptide)
peptide: WYVNGVNYF
- peptide exchange yield: 20 to 49%

B12: Peptide SEQ ID NO: 190 (…) (peptide)
peptide: GFFIFNERF
- peptide exchange yield: 50 to 75%

B13: Peptide SEQ ID NO: 216 (…) (peptide)
peptide: QYSSVFKSL
- peptide exchange yield: > 75%

B14: Peptide SEQ ID NO: 180 (…) (peptide)
peptide: IYDDSFIRPVTF
- peptide exchange yield: 50 to 75%

B15: Peptide SEQ ID NO: 215 (YFDKVVTL) (peptide)
peptide: YFDKVVTL
- peptide exchange yield: 20 to 49%

B16: Peptide SEQ ID NO: 198 (…) (peptide)
peptide: LYLDKATLI
- peptide exchange yield: 50 to 75%

B17: Peptide SEQ ID NO: 178 (…) (peptide)
peptide: IFIEVFSHF
- peptide exchange yield: 50 to 75%

B18: Peptide SEQ ID NO: 186 (…) (peptide)
peptide: IFPQFLYQF
- peptide exchange yield: > 75%

B19: Peptide SEQ ID NO: 182 (…) (peptide)
peptide: IYQLDTASI
- peptide exchange yield: 50 to 75%

B20: Peptide SEQ ID NO: 184 (…) (peptide)
peptide: VFQNFPLLF
- peptide exchange yield: > 75%

B21: Peptide SEQ ID NO: 205 (…) (peptide)
peptide: VHIPEVYLI
- peptide exchange yield: 50 to 75%

B22: Peptide SEQ ID NO: 194 (…) (peptide)
peptide: EFGSLHLEFL
- peptide exchange yield: < 20%

B23: Peptide SEQ ID NO: 192 (…) (peptide)
peptide: SYALLTYMI
- peptide exchange yield: > 75%

B24: Peptide SEQ ID NO: 177 (…) (peptide)
peptide: VYPWLGALL
- peptide exchange yield: > 75%

B25: Peptide SEQ ID NO: 179 (…) (peptide)
peptide: MYDSYWRQF
- peptide exchange yield: > 75%

B26: Peptide SEQ ID NO: 214 (…) (peptide)
peptide: LYLKLWNLI
- peptide exchange yield: 50 to 75%

B27: Peptide SEQ ID NO: 210 (…) (peptide)
peptide: IYTMIYRNL
- peptide exchange yield: > 75%

B28: Peptide SEQ ID NO: 206 (…) (peptide)
peptide: EYQENFLSF
- peptide exchange yield: 50 to 75%

B29: Peptide SEQ ID NO: 185 (…) (peptide)
peptide: IYKVGAPTI
- peptide exchange yield: 50 to 75%

B30: Peptide SEQ ID NO: 183 (…) (peptide)
peptide: VFTSTARAF
- peptide exchange yield: 50 to 75%
